PMC4732737

Key:
[1] = biological target: AviB-tagged BG505 SOSIP.664 A316W trimer (HIV-1); assay: BLI
[2] = biological target: AviB-tagged BG505 SOSIP.v4.2 trimer (HIV-1); assay: BLI

## soluble CD4 (domain or fragment)
[1]
  fold reduction of affinity against the wild-type trimer: 2.4 fold
[2]
  fold reduction of affinity against the wild-type trimer: 2.4 fold
